According to patent US20160199524A1, “RADIOSENSITIVITY OF FLUOROPHORES AND USE OF RADIOPROTECTIVE AGENTS FOR DUAL-MODALITY IMAGING” (Immunomedics, Inc., priority 2015, published 2016):
Like-named read-outs stand apart in the source and are kept apart here. Values belong to the molecule of their own block, whether it stands above or below them. *1 amine or outer side, *2 acyl side, *3 side chain or, on linkers, in order; H or OH if unused. Where a SMILES comes first, the peptide text is derived from it. Side-chain parts run from the residue outwards. [ ]: non-standard residue; d: D form. The star is where a group is joined. HSG = histamine succinyl glycyl group, O=C(CCC(=O)NCC(=O)*)NCCc1c[nH]cn1; DOTA = O=C(O)CN1CCN(CC(=O)O)CCN(CC(=O)*)CCN(CC(=O)O)CC1; NH(2-(imidazol-4-yl)ethyl) = c1ncc(CCN*)[nH]1; Suc = O=C(CCC(=O)[*:2])[*:1]

Legend:
[1] = Radioprotection of 800CW with radical scavengers; format: physicochemical; details: for radioprotection of 800CW: 20 MBq of ^68Ga, 0.5, 3 and 6 h exposure
Description: The radioprotective effect of three common hydroxyl radical scavengers, ethanol, gentisic acid (GA) and ascorbic acid (AA) was tested. […]

[2] = PET/CT images, region of interest ratios; format: in vivo, mice; details: male, BALB/c nude, mouse, iv, total radioactivity, mice with LS174T tumor and inflamed muscle, ^68Ga(IMP288) after TF2
Description: (§1) PET images were acquired with an Inveon animal PET/CT scanner (Siemens Preclinical Solutions, Knoxville, Tenn.). PET emission scans were acquired for 15 minutes, preceded by CT scans for anatomical reference (spatial resolution 113 μm, 80 kV, 500 μA, exposure time 300 msec).
(§2) Uptake in the tumor was evaluated quantitatively by drawing regions of interest (ROI), using a 50% threshold of maximum intensity. A region in the abdomen was used as background region.

[3] = tested on: nude BALB/c mice with s.c. LS174T tumors; assay: PET/CT images, region of interest ratios; format: in vivo
Description: as §1, §2

[4] = Stability of ^18F-labeled IMP272 in PBS (reverse phase HPLC); format: physicochemical; details: incubated at room temperature with PBS for ~1 hr
Description: ^18F-Labeling of IMP272—A 3 μL aliquot of the aluminum stock solution was placed in a REACTI-VIAL™ and mixed with 50 μL ^18F (as received) and 3 μL of the IMP272 solution. […] The remainder of the peptide solution was incubated at room temperature with 150 μL PBS for ˜1 hr and then examined by reverse phase HPLC.

[5] = target: somatostatin receptors on AR42J cells (rat); assay: apparent IC50; competition with ^111In(DTPA-octreotide) on AR42J cells, 3 h at RT
[6] = Stability of Al^18F(IMP467) in human serum or PBS; format: in vitro ADME
Description: An aliquot of the HLB purified peptide (˜30 μL) was diluted with 200 μL human serum (previously frozen) and placed in the 37° C. HPLC sample chamber. Aliquots were removed at various time points and analyzed by HPLC.
Optimized conditions for ^18F-labeling of IMP467 were identified. These consisted of eluting ^18F^− with commercial sterile saline (pH 5-7), mixing with 20 nmol of AlCl3 and 40 nmol IMP467 in pH 4 acetate buffer in a total volume of 100 μL, heating to 102° C. for 15 min, and performing SPE separation. High-yield (85%) and high specific activity (115 GBq/μmol) were obtained with IMP467 in a single step, 30-min procedure after a simple solid-phase extraction (SPE) separation without the need for HPLC purification. Al^18F(IMP467) was stable in PBS or human serum, with 2% loss of ^18F after incubation in either medium for 6 h at 37° C.

[7] = Stability of ^18F-labeled IMP449 in human serum at 37° C.
Description: Three microliters of a 2 mM solution of Al in a pH 4 acetate buffer was mixed with 15 μL, 1.3 mCi of ^18F. […] […] […] Another aliquot was removed after 1 hr and analyzed by HPLC.

[8] = tested on: nude mice bearing Capan-1 human pancreatic cancer xenografts; details: mouse, in vivo
Description: (§3) Nude mice were inoculated subcutaneously with CaPan-1 human pancreatic adenocarcinoma (ATCC Accession No. HTB-79, Manassas, Va.). When tumors were visible, the animals were injected intravenously with 100 μL of the radiolabeled Fab′. […] The animals were necropsied at 3 h post injection, tissues and tumors removed, weighed, and counted by gamma scintillation, together with standards prepared from the injected products. The data are expressed as percent injected dose per gram.

CEA = target: T1, CEA (Homo sapiens, UniProt P06731); assay: Immunoreactivity with excess CEA by SE-HPLC; format: binding; details: 0.74-GBq run
T1 sequence (P06731 35-676): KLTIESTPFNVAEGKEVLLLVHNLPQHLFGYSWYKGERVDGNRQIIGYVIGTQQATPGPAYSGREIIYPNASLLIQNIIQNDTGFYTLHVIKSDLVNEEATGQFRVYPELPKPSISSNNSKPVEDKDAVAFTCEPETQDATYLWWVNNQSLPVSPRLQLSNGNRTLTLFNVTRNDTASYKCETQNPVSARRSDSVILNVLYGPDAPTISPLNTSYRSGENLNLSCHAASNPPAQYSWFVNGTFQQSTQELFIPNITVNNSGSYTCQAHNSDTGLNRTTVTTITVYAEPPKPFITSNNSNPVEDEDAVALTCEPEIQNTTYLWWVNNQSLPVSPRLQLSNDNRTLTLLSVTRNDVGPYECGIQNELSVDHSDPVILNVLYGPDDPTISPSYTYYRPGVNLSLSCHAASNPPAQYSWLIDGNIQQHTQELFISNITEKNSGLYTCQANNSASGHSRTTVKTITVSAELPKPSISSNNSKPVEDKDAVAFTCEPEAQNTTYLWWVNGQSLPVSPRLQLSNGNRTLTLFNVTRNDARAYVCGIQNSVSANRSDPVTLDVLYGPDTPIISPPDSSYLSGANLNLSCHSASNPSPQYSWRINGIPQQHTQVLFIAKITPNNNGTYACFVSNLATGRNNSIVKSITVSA
Description: Immunoreactivity of the purified product was analyzed by adding an excess of CEA and separating on SE-HPLC, comparing to a profile of the product alone. The product was also analyzed by RP-HPLC to assess percent-unbound Al^18F(NOTA-MPAEM).

[9] = tested on: nude mice bearing Capan-1 human pancreatic cancer xenografts; assay: Biodistribution of radiolabeled Fab′; details: 3 h after injection
Description: as §3

[10] = Effect of heating on fluorescence of 800CW; format: physicochemical; details: NaAc 0.1 M pH 4.5, 1 h at 95° C.
Description: To investigate the effect of heating on the fluorescence of 800CW, 5 μg/mL solutions of the dye in NaAc (0.1 M, pH 4.5) were placed in a heating block at 95° C. for 5, 15, 30, or 60 min. Following, samples were cooled down to room temperature, measured in the plate reader, and the fluorescence of each sample was normalized to a non-heated control.

[11] = IRDye800CW irradiations (radiobleaching); format: physicochemical
Description: To assess the radiosensitivity of 800CW, 5 μg/mL aqueous solution of the dye in 0.1 M NaAc buffer pH 4.5 was prepared and mixed with increasing activities of ^68Ga, ^111In, and ^213Bi (1-20 MBq) for a 310 μL final volume. Radioactive solutions were incubated in 1.5 mL Eppendorf tubes at 4° C. in the dark, and 100 μL aliquots taken at 0.5, 6, and 24 h time points for fluorescence measurement. The effect of volume on 800CW's radiosensitivity was determined by incubating 150, 300, 550,800, or 1050 μL of 5 μg/mL buffered dye solution with 20 MBq of ^68Ga. All fluorescence readings were normalized to non-irradiated controls.

[12] = tested on: nude mice bearing LS174T human colonic xenografts; assay: Biodistribution of ^18F-labeled agents with or without TF2 pretargeting; details: not pretargeted
Excerpt: Six-week-old NCr nu-m female nude mice were implanted s.c. with the human colonic cancer cell line, LS174T (ATCC, Manassas, Va.).
Tissues were weighed and counted together with a standard dilution prepared from each of the respective products. Due to the short physical half-life of ^18F, standards were interjected between each group of tissues from each animal. Uptake in the tissues is expressed as the counts per gram divided by the total injected activity to derive the percent-injected dose per gram (% ID/g).

Chain of somatostatin receptors on AR42J cells (rat) (P30680 whole entry): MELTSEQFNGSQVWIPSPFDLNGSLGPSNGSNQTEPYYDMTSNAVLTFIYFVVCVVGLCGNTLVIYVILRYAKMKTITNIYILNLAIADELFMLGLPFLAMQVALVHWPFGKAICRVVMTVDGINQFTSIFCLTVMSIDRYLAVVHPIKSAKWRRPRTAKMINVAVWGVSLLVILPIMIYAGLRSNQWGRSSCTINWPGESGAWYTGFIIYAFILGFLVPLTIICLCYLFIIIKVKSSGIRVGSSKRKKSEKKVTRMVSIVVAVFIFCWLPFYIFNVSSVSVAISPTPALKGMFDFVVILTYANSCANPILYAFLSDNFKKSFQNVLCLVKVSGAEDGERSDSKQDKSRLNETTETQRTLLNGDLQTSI

Molecule: O=C(O)c1cc(O)ccc1O [GA, gentisic acid]
radioprotection of 800CW [1]: both concentration and exposure time dependent

Molecule: NC(=O)[C@@H](CCCCNC(=O)CNC(=O)CCC(=O)NCCc1c[nH]cn1)NC(=O)[C@@H](CCC(=O)O)NC(=O)[C@@H](CCCCNC(=O)CNC(=O)CCC(=O)NCCc1c[nH]cn1)NC(=O)[C@@H](Cc1ccc(O)cc1)NC(=O)CN1CCN(CC(=O)O)CCN(CC(=O)O)CCN(CC(=O)O)CC1 [^68Ga(IMP288), metal not drawn] ({DOTA}-[dY][dK]([Gly-Suc-NH(2-(imidazol-4-yl)ethyl)])[dE][dK]([Gly-Suc-NH(2-(imidazol-4-yl)ethyl)])-NH2)
tissue to tissue ratio at 1 h ([2]; read-out: inflamed muscle-to-background ratio in PET/CT image): 8.9
tissue to tissue ratio at 1 h ([2]; read-out: tumor-to-background ratio in PET/CT image): 48
tumor-to-background ratio in PET image ([3]; TF2 and ^68Ga(IMP288), 1 h, ROI 50% threshold, abdomen as background): 38.2
tumor-to-inflamed tissue ratio in PET/CT image ([3]; mice with LS174T tumor and inflamed muscle, ^68Ga(IMP288) after TF2): 5.4

^18F still attached to the peptide [4]: 42%
^18F unbound [4]: 58%
Molecule: DTPA-Gln-Ala-Lys(HSG)-D-Tyr-Lys(HSG)-NH2 [IMP272]

IC50 [5]: 6.3 nM
Molecule: ^115In(DTPA-octreotide) (peptide)

Molecule: NC(=O)[C@@H](CCCCNC(=O)CNC(=O)CCC(=O)NCCc1c[nH]cn1)NC(=O)[C@@H](Cc1ccc(O)cc1)NC(=O)[C@@H](CCCCNC(=O)CNC(=O)CCC(=O)NCCc1c[nH]cn1)NC(=O)CCC(=O)Nc1ccc(CC(CN2CCN(CC(=O)O)CCN(CC(=O)O)CC2)N(CC(=O)O)CC(=O)O)cc1 (stereo partly drawn) [Al^18F(IMP467)]
loss of ^18F ([6]; incubation in PBS or human serum for 6 h at 37° C.): 2%

Molecule: C-NETA-succinyl-D-Lys(HSG)-D-Tyr-D-Lys(HSG)-NH2 ({C‑NETA-Suc}-[dK](HSG)-[dY]-[dK](HSG)-NH2) [IMP467]
breakdown of ^18F-labeled peptide in serum ([6]; human serum, 37° C., five hour incubation): no detectable breakdown

Molecule: C[C@@H](NC(=S)Nc1ccc(CC2CN(CC(=O)O)CCN(CC(=O)O)CCN2CC(=O)O)cc1)C(=O)N[C@H](CCCCNC(=O)CNC(=O)CCC(=O)NCCc1c[nH]cn1)C(=O)N[C@H](Cc1ccc(O)cc1)C(=O)N[C@H](CCCCNC(=O)CNC(=O)CCC(=O)NCCc1c[nH]cn1)C(N)=O (stereo partly drawn) [IMP449, NOTA-benzyl-ITC-D-Ala-D-Lys(HSG)-D-Tyr-D-Lys(HSG)-NH2]
stability in human serum [7]: 76%
stability in human serum ([7]; purified, 37° C., at least one hour): 91%

Molecule: CCO [EtOH, ethanol]
radioprotection of 800CW [1]: both concentration and exposure time dependent

Molecule: Al^18F(NOTA-MPAES)-hMN-14 Fab′: Al^18F(NOTA-MPAEM) conjugated to Fab′ of humanized MN-14 anti-CEACAM5 IgG (labetuzumab)
T/NT Liver [8]: 0.2 ± 0.04
T/NT Lung [8]: 0.8 ± 0.5
T/NT Muscle [8]: 6.7 ± 1.3
T/NT Scapula [8]: 1.8 ± 0.4
T/NT Sm. Int. [8]: 1.3 ± 0.1
T/NT Spleen [8]: 0.3 ± 0.04
T/NT Stomach [8]: 4.7 ± 1.2
shift of activity on SE-HPLC when excess CEA was added (CEA): all of the activity shifted
% ID/g Blood [9]: 0.5 ± 0.1 % ID/g
% ID/g Capan-1 tumor [9]: 2.8 ± 0.3 % ID/g
% ID/g Kidney [9]: 216 ± 30.9 % ID/g
% ID/g Lg. Int. [9]: 1.1 ± 0.4 % ID/g
% ID/g Liver [9]: 17.5 ± 3.8 % ID/g
% ID/g Lung [9]: 4.2 ± 1.6 % ID/g
% ID/g Muscle [9]: 0.4 ± 0.1 % ID/g
% ID/g Scapula [9]: 1.6 ± 0.4 % ID/g
% ID/g Sm. Int. [9]: 2.2 ± 0.2 % ID/g
% ID/g Spleen [9]: 11.3 ± 1.6 % ID/g
% ID/g Stomach [9]: 0.6 ± 0.1 % ID/g
T/NT Blood (tumor/blood ratio) [9]: 5.9 ± 1.3
T/NT Kidney [9]: 0.0 ± 0.0
T/NT Lg. Int. [9]: 2.8 ± 0.7
% ID/g Capan-1 tumor ([9]; listed as [Al^18F]-Fab′): 2.8±0.3 % ID/g
T/NT Blood (tumor/blood ratio) ([9]; listed as [Al^18F]-Fab′): 5.9±1.3

Molecule: O=C1O[C@H]([C@@H](O)CO)C(O)=C1O [AA, ascorbic acid]
radioprotection against ^111In and ^213Bi induced radiobleaching of 800CW ([1]; 0.1% (w/v) AA): effective radioprotection
concentrations that completely preserve 800CW fluorescence ([1]; 20 MBq of ^68Ga, longer radiation exposure): 0.001-10 % (w/v)

fluorescent intensity, % of the initial values [10]: 60%
change of 800CW fluorescence on exposure to ^68Ga ([11]; 0.1 M NaAc pH 4.5, 30 min exposure, increasing activities): pronounced dose-dependent decrease
extent of radiobleaching by the three radionuclides, trend ([11]; similar activity level and exposure times): ^68Ga>^111In>^213Bi
Molecule: CC1(C)C(/C=C/C2=C(Oc3ccc(S(=O)(=O)O)cc3)C(=C/C=C3/N(CCCCS(=O)(=O)O)c4ccc(S(=O)(=O)[O-])cc4C3(C)C)/CCC2)=[N+](CCCCCC(=O)O)c2ccc(S(=O)(=O)O)cc21 [800CW]

IC50 [5]: 3.6 nM
Molecule: Al^19F(IMP466) (peptide)

Molecule: [18FH] [^18F, reference compound]
tumor/blood ratio [12]: 6.7±2.7

IC50 [5]: 13 nM
Molecule: ^69Ga(IMP466) (peptide)
